Measured values: the domain aggregation screens of Martell et al. (2025)

Assay: soluble fraction after stress (log2 fold change); higher = more stays soluble; pooled small domains, quantitative proteomics
Conditions: stress: pH 4
Procedure, shortened: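 Custom libraries of small protein domains were pooled and exposed to pH 4. High-throughput quantitative proteomics then measured the log2 fold change in the amount of each domain still soluble, with higher values meaning more stayed soluble. This soluble-fraction fold change stands for aggregation propensity.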

Sequence	soluble fraction (log2)
HMAEPYDERKVMEQMIPKGKNTIVAHLGHLKDHGETGYLQEALSYLRERESELGFDLKEVRALVHN	-0.223
HMAEQVLHQKLAARRKELNSLVAQVARVRGIPHSHVHSGLRREAGGPPLAQATTDQVEARISLARKWLRA	-0.000969
HMAERLQARIDAPGVRLDKALAETFPTLSRARLQALLADGAVTRDGQTVSNGSAKAQPGLYVVALPPVA	0.316
HMAESNQIQLSDVREALNMIGPASWLDLVHYLDTGKGRGGQRLRRMLKSLSRSGEIELVARGTYQITDN	-0.742
HMAEVALFVNGSDVNLRSGPGQESTRVIGSLNLGDEVRIKSQNGQWREVYVPKTRQVGWVAHWLLSEAPP	-0.527
HMAEVPDLRNKTQQEAEAELTNHNLKLGNVTEEYSATVEAGRVISQSTSYGTKVLEGSSVDITISKGPEPT	0.156
HMAEWLFDARKIPDEVMNYLRRIAVQAIEEKHYSPELVADLLGISRSSIYDWLNWYRNGGEEDLDTRKA	-0.543
HMAFAQMAQEAAKGKDDFNDLRQEMEAVIKEQPHILLMAQFGQNPYEIAYQEAKRRKAQDQQQQQ	-0.805
HMAFGTGTVTASSLRVREDASTSAATLDTLSKGSKVSVLADEQDGFYKVQIGEQVGYMSAEYLDVTE	-0.269
HMAFKNGLLQTSKKVTLVRKVDGVTMRFDSLRAASVFLGRNKGYLSNVIKNGRTLDNYEIVVGE	0.0346
HMAFRIGGFVQEGSVVRQQDGGTVRFEVTDTAHSVPVTYKGSLPDLFKEGKGVVAQGKLMNGTFVADQVLA	-0.186
HMAGATDTVRNLLERQIREGELLPGQRLPTEPELAARLGVSRNSLREALQSLEDSGLIVKRHGIGTFVTE	0.22
HMAGLELVVTREQAGRTVKSLLRGELGISTALMGRLKRTGTGLTVNGTRVFTNAVLREGDRLAVDLDAAE	-0.0613
HMAGLKERLFYFIEYKGLTVQSFEKTVGLSNGAVSKMGDNTRRSTIDKISNFFGDLNKNWLLTGEGEMLI	-0.638
HMAGRKMMVMANNLSVRKSANSLSEKLADLSRGDTVEYISSTNGWNKVRYKGQIGYVSSYYLKDTGEEVE	0.216
HMAGTKRAENIEIQKLTEVLEARLDSVGFFWPDHKAESMIMTLRNMISRLPLTEADVRVFHGIIKSLADK	-0.727
HMAGTWQDQGNGQWKYQNDDGSYATGWIEDSGKSYYLDANGIMLANTTTPDGKQVGPDGALIP	-1.69

Sequence	soluble fraction (log2)
HMAHETIDVAALRVGMFVQLDLGWLSHPFPLSSFRISSEDQIATIRALGLKRVRWSSEQSDS	-2.26
HMAHPRTHEALNPLWEKYLGPNAGNDFFLSGGTSLKALMFLKDLEKTLNKRIAIHAFFKDPTYEHVVSD	-0.467
HMAHTGGNTLTREKAVSVRSASDALLFEIHWNETPREDILSTREEKVDGKTYSIITIRTGKGREDHYYLLS	0.295
HMAHYPGKVNNELVEFIRSEQRKTPHMTLTGLNRKLQRTYDLTLSESTVRKLVEAETILPLAREPD	0.217
HMAIDLPVTTVNGKDYYYYDVQPKETIFSLSQRLGISREEIISYNPGVDGGLKAYTRLYFPVESGL	-0.0117
HMAIDLSLIPGNLLRELHGAVEDGDMYRIRELIRSISAVDEKVGKELLLLAERYDYERLLELVND	-1.03
HMAIDWVQIKAEYISGTMSASKLAEKHGVSVYAIRKRSGKERWQELRRQNQSETANKIAEKI	-0.0638
HMAIDYYQTLINLGYKLQDRGDYWQTSAIHRGGDNPTALQIYKNTGVWKDYVSGGGFKPFKALVEKSD	-0.35
HMAIELTPRQLDIIELVRKHAPITGEQIAELLGVTRPSIRSDLGLLVMLGYIDAKPKVGYFAGPRM	-0.893
HMAIGSRLKVTTDATNLNIRSTPSTEGDIVGKAAHHEIVTLVEKTDDSWWKIKTNDGEEGYAYAQYLSPV	0.0608
HMAIIQSNNIFKSQKEIVDEILVELDIPKDKWNFFHMLISSGYKDEFDTNRIYEIIQTNYNMMDR	-0.693
HMAILDTALDVLSMNLKDNYTSFQILRQAAIAGKIAFNLTEKNPLGGVIEVELTGDDLETWIEAATW	-0.697
HMAIMISINAKGEVAWNDQIISLDDLAQRFNAAGQQAQKPTVQLRADKESRYDMVAQVMSRASEAGLSDIA	-0.966
HMAIRLIKASREFNVGISTIVEFLEKKGHAIDSDPNSKIPDELYQLIEKEFQTEGSVKKAAKQI	-0.335
HMAITLEVAKKHLEMWLEAESEVAINQSYTIGGKSFTRANLAEIRKQIEYWSNKVAELENLA	-0.247
HMAITYETKVISGVNLRSAPSTSASVYQLIPKGENIHVVQKVNDYWLKVQTKDGKTGYISASSKYTNYIG	0.0502
HMAIWAVFYKNEPFNLKSFNSLTSYPGPKYKKTSFSNPGHALNLAKKLNLTFGTEDFQVVKLTQGTIV	0.00875
